In paper PMC8979947:

Legend:
talin R3-IVVI domain [1] = target: talin R3-IVVI domain
talin R3-IVVI domain [2] = target: talin R3-IVVI domain; remark: listed apart in the source
talin R3-IVVI domain [3] = target: talin R3-IVVI domain; remark: listed apart in the source
talin R3-IVVI domain [4] = target: talin R3-IVVI domain; remark: listed apart in the source

## DnaJ (from UniProt P08622 1-376) (natural protein)
Talin R3-IVVI domain [1]
  intersection force (equal unfolding and refolding rates) of R3-IVVI, force-clamp chevron plot, with 1 µM DnaJ; control 9.7 pN: 7.9 pN

## DnaK (from UniProt P0A6Y8 1-638) (natural protein)
Talin R3-IVVI domain [1]
  intersection force (equal unfolding and refolding rates) of R3-IVVI, force-clamp chevron plot, with 3 µM apo-DnaK; control 9.7 pN: 6 pN
Talin R3-IVVI domain [2]
  unfolding force (confirmed as intersection force of the chevron plot) of R3-IVVI with DnaK + DnaJ + ADP (DnaKJ-ADP): 6.3 pN
  unfolding force (confirmed as intersection force of the chevron plot) of R3-IVVI with DnaK and ATP; ~6 pN with apo-DnaK: 7.6 pN

## Hsp40, human recombinant protein (from UniProt P25685 1-340) (natural protein)
Talin R3-IVVI domain [3]
  intersection force of R3-IVVI, chevron plot, with Hsp40; control 9.7 pN: 7.8 pN

## Hsp70, human recombinant protein (from UniProt P0DMV8 1-641) (natural protein)
Talin R3-IVVI domain [4]
  half-point force of R3-IVVI with Hsp70: 7.2 pN
  half-point force of R3-IVVI with Hsp70 and its inhibitor pifithrin-µ (PFT-µ, binds the substrate-binding domain of Hsp70): 9.5 pN
Talin R3-IVVI domain [3]
  intersection force of R3-IVVI, chevron plot, with Hsp70; control 9.7 pN: 7.2 pN

B1: oxidized DsbA (enzyme)
chain: AQYEDGKQYTTLEKPVAGAPQVLEFFSFFCPHCYQFEEVLHISDNVKKKLPEGVKMTKYHVNFMGGDLGKDLTQAWAVAMALGVEDKVTVPLFEGVQKTQTIRSASDIRDVFINAGIKGEEYDAAWNSFVVKSLVAQQEKAAADVQLRGVPAMFVNGKYQLNPQGMDTSNMDVFVQQYADTVKYLSEKK
modifications: oxidized (0.3% H2O2 overnight)
Talin R3-IVVI domain [1]
  intersection force (equal unfolding and refolding rates) of R3-IVVI, force-clamp chevron plot, with 60 µM DsbA; control 9.7 pN: 14.9 pN
